# ± gives the uncertainty stated by the source.
# Assay: self-splicing fitness, log relative to wild type (ln ratio); higher = more splicing; Tetrahymena group I intron in knt gene, E. coli kanamycin selection, DiMSum; sequences stand for … in CUCUCU…GGAGGGAAAAGUUAUCAGGCAUGCACCUGGUAGCUAGUCUUUAAACCAAUAGAUUGCAUCGGUUUAAAAGGCAAGACCGUCAAAUUGCGGGAAAGGGGUCAACAGCCGUUCAGUACCAAGUCUCAGGGGAAACUUUGAGAUGGCCUUGCAAAGGGUAUGGUAAUAAGCUGACGGACAUGGUCCUAACCACGCAGCCAAGUCCUAAGUCAACAGAUCUUCUGUUGAUAUGGAUGCAGUUCACAGACUAAAUGUCGGUCGGGGAAGAUGUAUUCUUCUCAUAAGAUAUAGUCGGACCUCUCCUUAAUGGGAGCUAGCGGAUGAAGUGAUGCAACACUGGAGCCGCUGGGAACUAAUUUGUAUGCGAAAGUAUAUUGAUUAGUUUUGGAGUACUCGUGGUCG
# In short: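 Pooled colonies went to amplicon sequencing on an Illumina HiSeq 2500 after six replicate transformations. The plates were LB agar with 100 μg/mL carbenicillin, 50 μM IPTG and 0.2% rhamnose, with or without 25 μg/mL kanamycin, incubated overnight at 37°C or 30°C. The E. coli BL21(DE3) library had all eight P1ex-region intron nucleotides randomised, the intron placed in the knt kanamycin-resistance gene on pET-22b(+). DiMSum fitness is the error-weighted combination of replicate fold changes, kanamycin against none, normalised to wild type.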
Sequence,self-splicing fitness (ln) (30 °C),self-splicing fitness (ln) (37 °C)
CGCUAGCAAUAUUACGACGA,-1.46 ± 0.15,0.422 ± 0.16
CGCUAGCAAUAUUACGACGU,-1.86 ± 0.1,-0.355 ± 0.12
CGCUAGCAAUAUUACGAGGA,-1.5 ± 0.18,-2.97 ± 0.29
CGCUAGCAAUAUUACGAUAG,-1.9 ± 0.065,-0.433 ± 0.085
CGCUAGCAAUAUUACGAUCG,-1.17 ± 0.12,-0.644 ± 0.14
CGCUAGCAAUAUUACGAUUG,-1.18 ± 0.1,0.0898 ± 0.13
CGCUAGCAAUAUUACGCACC,-1.98 ± 0.18,-1 ± 0.23
CGCUAGCAAUAUUACGCACU,-1.27 ± 0.089,-0.65 ± 0.11
CGCUAGCAAUAUUACGCGUU,-1.99 ± 0.15,-2.51 ± 0.29
CGCUAGCAAUAUUACGCUCA,-2.4 ± 0.18,-0.522 ± 0.11
CGCUAGCAAUAUUACGCUGU,,-2.3 ± 0.19
CGCUAGCAAUAUUACGGUAG,-2.52 ± 0.11,-2 ± 0.13
CGCUAGCAAUAUUACGUACG,-1.66 ± 0.13,-1.07 ± 0.13
CGCUAGCAAUAUUACGUAGA,-2.69 ± 0.14,-1.54 ± 0.19
CGCUAGCAAUAUUACGUGCC,-1.58 ± 0.11,-0.959 ± 0.15
CGCUAGCAAUAUUACGUGUA,-3.54 ± 0.27,-1.53 ± 0.13
CGCUAGCAAUAUUACGUUGG,-4 ± 0.23,-2.24 ± 0.19
CGCUAGCAAUAUUACGUUUC,-2.78 ± 0.17,-2.23 ± 0.22
CGGAAGCAAUAUUACGACAA,-2.42 ± 0.31,-2.2 ± 0.33

Sequence,self-splicing fitness (ln) (30 °C),self-splicing fitness (ln) (37 °C)
CGGAAGCAAUAUUACGAUAC,-2.26 ± 0.18,-2.22 ± 0.21
CGGAAGCAAUAUUACGAUAG,-1.11 ± 0.082,0.166 ± 0.1
CGGAAGCAAUAUUACGCAAU,-3 ± 0.26,-2.69 ± 0.26
CGGAAGCAAUAUUACGCCCG,-2.86 ± 0.36,
CGGAAGCAAUAUUACGCCUA,-1.72 ± 0.21,-0.963 ± 0.18
CGGAAGCAAUAUUACGCCUG,-1 ± 0.098,-0.724 ± 0.12
CGGAAGCAAUAUUACGGCGU,-1.96 ± 0.16,-1.04 ± 0.22
CGGAAGCAAUAUUACGGGAU,-3.67 ± 0.42,-2.48 ± 0.25
CGGAAGCAAUAUUACGGGGU,-2.39 ± 0.27,-3.41 ± 0.43
CGGAAGCAAUAUUACGGGUC,-3.78 ± 0.19,-2.59 ± 0.21
CGGAAGCAAUAUUACGGUAA,-3.11 ± 0.23,-2.23 ± 0.24
CGGAAGCAAUAUUACGGUAC,-3.17 ± 0.27,-1.93 ± 0.25
CGGAAGCAAUAUUACGUAUU,-3.43 ± 0.28,-3.37 ± 0.37
CGGAAGCAAUAUUACGUCUC,-4.07 ± 0.39,-2.3 ± 0.19
CGGAAGCAAUAUUACGUCUU,-1.67 ± 0.083,-0.53 ± 0.092
CGGAAGCAAUAUUACGUGUC,-3.44 ± 0.28,-1.94 ± 0.31
CGGAAGCAAUAUUACGUUAU,-3.02 ± 0.21,-2.3 ± 0.28
CGGCAGCAAUAUUACGACAA,-1.99 ± 0.1,-2.28 ± 0.18
CGGCAGCAAUAUUACGACGA,-1 ± 0.11,-1.41 ± 0.14

# Source: the supplement of paper PMC7877785
